Test results as given in patent EP4676945A2.

Molecular target: fibrin
Test: cell adhesion assay: HEK293 cells transfected with the CAR, 30 minutes on fibrin-coated plates, washed with PBS, adhered cells counted by Hoechst stain; reference control-CAR

- fold increase of cell adhesion to fibrin against the control-CAR construct: 9.8 fold
B1: fibrin-specific FIB2-CAR (PMC 1946, FIB2scfvCAR), expressed on transfected/transduced HEK293 cells (receptor)
chain: DIQLTQSPSSLSASVGDRVTITCRASQNIGVNLNWYQQRPGKGPKLLVSSTFSLQSGVPSRFSASGAGTNFTLTISSLQPEDYVTYYCQQSYSSPFTFGPGTKVDIKGGGGSGGGGSGGGGSEVQLVESGGGAVQPGRSLRLSCAASGVSFSNIGMHWVRQAPGKGLEWVALISSDGRHTHYADSVKGRFTISRDNSENTLYLQINGLRADDTAVYYCAKGLDTRARYMGKFYTFDYWGQGTLVTVSSASAIEVMYPPPYLDNEKSNGTIIHVKGKHLCPSPLFPGPSKPFWVLVVVGGVLACYSLLVTVAFIIFWVKRGRKKLLYIFKQPFMRPVQTTQEEDGCSCRFPEEEEGGCELRVKFSRSADAPAYQQGQNQLYNELNLGRREEYDVLDKRRGRDPEMGGKPRRKNPQEGLYNELQKDKMAEAYSEIGMKGERRRGKGHDGLYQGLSTATKDTYDALHMQALPPR
